Experimental data published in paper doi:10.1101/2025.05.24.655746 (bioRxiv, 2025).
Numbering of substitutions follows the chain as printed.

T1: full-length RAD51AP1 (RAD51 Associated Protein 1), wild type (UniProt Q96B01 1-352)
T1 sequence: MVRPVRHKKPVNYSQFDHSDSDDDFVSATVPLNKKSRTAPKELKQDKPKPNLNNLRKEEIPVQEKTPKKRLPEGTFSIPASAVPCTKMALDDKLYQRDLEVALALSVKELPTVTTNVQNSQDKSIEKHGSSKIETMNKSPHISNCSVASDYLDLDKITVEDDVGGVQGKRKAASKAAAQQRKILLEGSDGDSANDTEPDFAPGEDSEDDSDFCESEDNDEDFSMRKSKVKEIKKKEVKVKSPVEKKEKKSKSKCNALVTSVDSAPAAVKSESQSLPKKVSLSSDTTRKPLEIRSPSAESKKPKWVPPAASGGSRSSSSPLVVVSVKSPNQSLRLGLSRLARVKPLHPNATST

T2: full-length RAD51AP1-H346A (Site-C mutant) (UniProt Q96B01 1-352, H346A)
T2 sequence: T1 sequence with H346A

T3: full-length RAD51AP1 variant in which both Site-N and Site-C are mutated (NC) (UniProt Q96B01 1-352)
T3 chain: T1 sequence with K300A, K303A, W304A, P306A, P307A, H346A

B1: RAD51 recombinase (natural protein)
chain: MAMQMQLEANADTSVEEESFGPQPISRLEQCGINANDVKKLEEAGFHTVEAVAYAPKKELINIKGISEAKADKILAEAAKLVPMGFTTATEFHQRRSEIIQITTGSKELDKLLQGGIETGSITEMFGEFRTGKTQICHTLAVTCQLPIDRGGGEGKAMYIDTEGTFRPERLLAVAERYGLSGSDVLDNVAYARAFNTDHQTQLLYQASAMMVESRYALLIVDSATALYRTDYSGRGELSARQMHLARFLRMLLRLADEFGVAVVITNQVVAQVDGAAMFAADPKKPIGGNIIAHASTTRLYLRKGRGETRICKIYDSPCLPEAEAMFAINADGVGDAKD
B2: full-length RAD51AP1 Site-N mutant (K300, K303, W304, P306, P307 to alanine) (natural protein)
chain: T1 sequence with K300A, K303A, W304A, P306A, P307A

Experiments:
[1] = target: T1, full-length RAD51AP1 (RAD51 Associated …); experiment: BLI
[2] = target: T2, full-length RAD51AP1-H346A (Site-C …); experiment: BLI
[3] = target: T3, full-length RAD51AP1 variant in which …; experiment: BLI
RAD51 recombinase = target: B1; experiment: pull-down

Row | Binder | Kd [1] [nM] | fold decrease in binding affinity against wild type [2] [fold] | fold reduction in affinity against wild type [3] [fold] | binding result (RAD51 recombinase)
1 | B1 | ~600 | ~2.5 | ~4 | –
2 | B2 | – | – | – | binds
